Experimental data as given in the supplement of paper PMC11246515.
± gives the standard deviation of the averaged measurements.

Experiment: total protein half-life in vivo (active degradation + dilution); higher = more stable protein
[1] = E. coli NCM3722 delta-clpP delta-lon delta-hslV, growth: N-lim chemostat, doubling time 6 h
[2] = E. coli NCM3722 delta-clpP, growth: N-lim chemostat, doubling time 6 h
[3] = E. coli NCM3722 delta-hslV, growth: N-lim chemostat, doubling time 6 h
[4] = E. coli NCM3722 delta-lon, growth: N-lim chemostat, doubling time 6 h
[5] = E. coli NCM3722 delta-smpB, growth: N-lim chemostat, doubling time 6 h
[6] = wild type E. coli NCM3722, growth: C-lim chemostat, doubling time 3 h
[7] = wild type E. coli NCM3722, growth: C-lim chemostat, doubling time 6 h
[8] = wild type E. coli NCM3722, growth: C-lim chemostat, doubling time 12 h
[9] = wild type E. coli NCM3722, growth: N-lim chemostat, doubling time 6 h
[10] = wild type E. coli NCM3722, growth: N-lim chemostat, doubling time 12 h
[11] = wild type E. coli NCM3722, growth: P-lim chemostat, doubling time 6 h
[12] = wild type E. coli NCM3722, growth: P-lim chemostat, doubling time 12 h

With “MRTSQYLLSTLKETPADAEVISHQLMLRAGMIRKLASGLYTWLPTGVRVLKKVENIVREEMNNAGAIEVSMPVVQPADLWQESGRWEQYGPELLRFVDRGERPFVLGPTHEEVITDLIRNELSSYKQLPLNFYQIQTKFRDEVRPRFGVMRSREFLMKDAYSFHTSQESLQETYDAMYAAYSKIFSRMGLDFRAVQADTGSIGGSASHEFQVLAQSGEDDVVFSDTSDYAANIELAEAIAPKEPRAAATQEMTLVDTPNAKTIAELVEQFNLPIEKTVKTLLVKAVEGSSFPQVALLVRGDHELNEVKAEKLPQVASPLTFATEEEIRAVVKAGPGSLGPVNMPIPVVIDRTVAAMSDFAAGANIDGKHYFGINWDRDVATPEVADIRNVVAGDPSPDGQGRLLIKRGIEVGHIFQLGTKYSEALKASVQGEDGRNQILTMGCYGIGVTRVVAAAIEQNYDERGIVWPDAIAPFQVAILPMNMHKSFRVQELAEKLYSELRAQGIEVLLDDRKERPGVMFADMELIGIPHTIVLGDRNLDNDDIEYKYRRNGEKQLIKTGDIVEYLVKQIKG” the “total protein half-life in vivo” value [1] was 5.92 ± 0.2 h, the “total protein half-life in vivo” value [2] was 5.61 ± 0.85 h and the “total protein half-life in vivo” value [3] was 5.37 ± 0.21 h. The “total protein half-life in vivo” value [4] was 6.14 ± 0.13 h, the “total protein half-life in vivo” value [5] was 5.24 ± 0.2 h and the “total protein half-life in vivo” value [6] was 3.1 ± 0.061 h. The “total protein half-life in vivo” value [7] was 6.12 ± 0.33 h, the “total protein half-life in vivo” value [8] was 10.9 ± 0.57 h and the “total protein half-life in vivo” value [9] was 5.4 ± 0.19 h. The “total protein half-life in vivo” value [10] was 10.6 ± 0.72 h, the “total protein half-life in vivo” value [11] was 6.14 ± 0.17 h and the “total protein half-life in vivo” value [12] was 12.2 ± 1.2 h.
With “MRVENNNVSGQNHDPEQIDLIDLLVQLWRGKMTIIISVIVAIALAIGYLAVAKEKWTSTAIITQPDVGQIAGYNNAMNVIYGQAAPKVSDLQETLIGRFSSAFSALAETLDNQEEREKLTIEPSVKNQQLPLTVSYVGQTAEGAQMKLAQYIQQVDDKVNQELEKDLKDNIALGRKNLQDSLRTQEVVAQEQKDLRIRQIQEALQYANQAQVTKPQIQQTGEDITQDTLFLLGSEALESMIKHEATRPLVFSPNYYQTRQNLLDIESLKVDDLDIHAYRYVMKPMLPIRRDSPKKAITLILAVLLGGMVGAGIVLGRNALRNYNAK” the “total protein half-life in vivo” value [1] was 6.28 ± 0.95 h, the “total protein half-life in vivo” value [2] was 6.967 ± 0.025 h and the “total protein half-life in vivo” value [3] was 6.99 ± 0.87 h. For the same sequence, the “total protein half-life in vivo” value [4] was 6.083 ± 0.046 h, the “total protein half-life in vivo” value [5] was 6.13 ± 0.13 h and the “total protein half-life in vivo” value [6] was 3.05 ± 0.051 h. For the same sequence, the “total protein half-life in vivo” value [7] was 5.61 ± 0.062 h, the “total protein half-life in vivo” value [8] was 11.1 ± 1.2 h and the “total protein half-life in vivo” value [9] was 6.07 ± 0.17 h. For the same sequence, the “total protein half-life in vivo” value [10] was 12 ± 1.5 h, the “total protein half-life in vivo” value [11] was 5.97 ± 0.15 h and the “total protein half-life in vivo” value [12] was 12.1 ± 0.5 h.
With “MRVFKTKLIRLQLTAEELDALTADFISYKRDGVLPDIFGRDALYDDSFTWPLIKFERVAHIHLANENNPFPPQLRQFSRTNDEAHLVYCQGAFDEQAWLLIAILKPEPHKLARDNNQMHKIGKMAEAFRMRF” the “total protein half-life in vivo” value [1] was 7.33 h, the “total protein half-life in vivo” value [11] was over 8 h and the “total protein half-life in vivo” value [12] was 12.4 ± 1 h.
For “MRVITLAGSPRFPSRSSSLLEYAREKLNGLDVEVYHWNLQNFAPEDLLYARFDSPALKTFTEQLQQADGLIVATPVYKAAYSGALKTLLDLLPERALQGKVVLPLATGGTVAHLLAVDYALKPVLSALKAQEILHGVFADDSQVIDYHHRPQFTPNLQTRLDTALETFWQALHRRDVQVPDLLSLRGNAHA”, the “total protein half-life in vivo” value [1] was 4.66 ± 0.17 h and the “total protein half-life in vivo” value [4] was 1.83 h.
In the case of “MRVLGIETSCDETGIAIYDDEKGLLANQLYSQVKLHADYGGVVPELASRDHVRKTVPLIQAALKESGLTAKDIDAVAYTAGPGLVGALLVGATVGRSLAFAWDVPAIPVHHMEGHLLAPMLEDNPPEFPFVALLVSGGHTQLISVTGIGQYELLGESIDDAAGEAFDKTAKLLGLDYPGGPLLSKMAAQGTAGRFVFPRPMTDRPGLDFSFSGLKTFAANTIRDNGTDDQTRADIARAFEDAVVDTLMIKCKRALDQTGFKRLVMAGGVSANRTLRAKLAEMMKKRRGEVFYARPEFCTDNGAMIAYAGMVRFKAGATADLGVSVRPRWPLAELPAA”, the “total protein half-life in vivo” value [1] is reported as 4.38 ± 0.12 h, the “total protein half-life in vivo” value [2] is reported as 3 ± 0.72 h and the “total protein half-life in vivo” value [3] is reported as 3.73 ± 1.1 h. The “total protein half-life in vivo” value [4] was 4.84 ± 1.2 h, the “total protein half-life in vivo” value [5] was 3.17 ± 0.33 h and the “total protein half-life in vivo” value [6] was 2.618 ± 0.021 h. For the same sequence, the “total protein half-life in vivo” value [7] was 4.72 ± 0.64 h, the “total protein half-life in vivo” value [8] was 7.77 ± 1.6 h and the “total protein half-life in vivo” value [9] was 3.33 ± 0.5 h. The “total protein half-life in vivo” value [10] was 4.16 ± 0.42 h, the “total protein half-life in vivo” value [11] was 4.07 ± 0.11 h and the “total protein half-life in vivo” value [12] was 8.07 ± 0.76 h.
With “MRVLLAPMEGVLDSLVRELLTEVNDYDLCITEFVRVVDQLLPVKVFHRICPELQNASRTPSGTLVRVQLLGQFPQWLAENAARAVELGSWGVDLNCGCPSKTVNGSGGGATLLKDPELIYQGAKAMREAVPAHLPVSVKVRLGWDSGEKKFEIADAVQQAGATELVVHGRTKEQGYRAEHIDWQAIGDIRQRLNIPVIANGEIWDWQSAQQCMAISGCDAVMIGRGALNIPNLSRVVKYNEPRMPWPEVVALLQKYTRLEKQGDTGLYHVARIKQWLSYLRKEYDEATELFQHVRVLNNSPDIARAIQAIDIEKL” the “total protein half-life in vivo” value [1] was 5.15 ± 0.54 h, the “total protein half-life in vivo” value [2] was 4.72 ± 0.35 h and the “total protein half-life in vivo” value [3] was 4.92 ± 0.12 h. The “total protein half-life in vivo” value [5] was 4.76 ± 0.15 h, the “total protein half-life in vivo” value [6] was 2.89 ± 0.34 h and the “total protein half-life in vivo” value [8] was 10.6 h. The “total protein half-life in vivo” value [9] was 5.2 ± 0.37 h, the “total protein half-life in vivo” value [10] was 8.91 ± 1.2 h and the “total protein half-life in vivo” value [11] was 5.81 ± 0.9 h. For the same sequence, the “total protein half-life in vivo” value [12] was 11.7 ± 1.4 h.
With “MRVLVVEDNALLRHHLKVQIQDAGHQVDDAEDAKEADYYLNEHIPDIAIVDLGLPDEDGLSLIRRWRSNDVSLPILVLTARESWQDKVEVLSAGADDYVTKPFHIEEVMARMQALMRRNSGLASQVISLPPFQVDLSRRELSINDEVIKLTAFEYTIMETLIRNNGKVVSKDSLMLQLYPDAELRESHTIDVLMGRLRKKIQAQYPQEVITTVRGQGYLFELR” the “total protein half-life in vivo” value [1] was 4.69 ± 0.2 h, the “total protein half-life in vivo” value [2] was 4.2 ± 0.46 h and the “total protein half-life in vivo” value [3] was 4.056 ± 0.01 h. The “total protein half-life in vivo” value [4] was 4.7 ± 0.21 h, the “total protein half-life in vivo” value [5] was 4.19 ± 0.29 h and the “total protein half-life in vivo” value [6] was 2.85 ± 0.13 h. The “total protein half-life in vivo” value [7] was 5.04 ± 0.12 h, the “total protein half-life in vivo” value [8] was 8.69 ± 1 h and the “total protein half-life in vivo” value [9] was 4.33 ± 0.29 h. For the same sequence, the “total protein half-life in vivo” value [10] was 7.55 ± 0.24 h, the “total protein half-life in vivo” value [11] was 5.134 ± 0.051 h and the “total protein half-life in vivo” value [12] was 8.98 ± 0.26 h.
For “MRWLPFIAIFLYVYIEISIFIQVAHVLGVLLTLVLVIFTSVIGMSLVRNQGFKNFVLMQQKMAAGENPAAEMIKSVSLIIAGLLLLLPGFFTDFLGLLLLLPPVQKHLTVKLMPHLRFSRMPGGGFSAGTGGGNTFDGEYQRKDDERDRLDHKDDRQD”, the “total protein half-life in vivo” value [1] was 5.99 ± 0.11 h, the “total protein half-life in vivo” value [2] was 6.83 ± 1.1 h and the “total protein half-life in vivo” value [3] was 6.44 ± 0.84 h. For the same sequence, the “total protein half-life in vivo” value [4] was 6.06 ± 0.49 h, the “total protein half-life in vivo” value [5] was 5.53 ± 0.073 h and the “total protein half-life in vivo” value [6] was 2.47 ± 0.28 h. The “total protein half-life in vivo” value [7] was 7.17 ± 0.34 h, the “total protein half-life in vivo” value [8] was 11.7 ± 1.8 h and the “total protein half-life in vivo” value [9] was 6.12 ± 1.3 h. For the same sequence, the “total protein half-life in vivo” value [10] was 14.2 h, the “total protein half-life in vivo” value [11] was 5.89 ± 0.25 h and the “total protein half-life in vivo” value [12] was 12.4 ± 0.96 h.
